Data taken from PMC6726503 (2019).
Blank lines part the entries; values can stand above or below the binder they belong to.

Biological target: T1, TGF-β2 (Homo sapiens, UniProt P61812)
T1 chain: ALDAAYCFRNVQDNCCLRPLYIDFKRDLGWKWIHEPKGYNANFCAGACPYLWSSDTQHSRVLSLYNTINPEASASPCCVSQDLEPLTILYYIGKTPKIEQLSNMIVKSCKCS
Test: SPR

Kd: 10 nM
B1: betaglycan O (protein)
chain: GPEPSTRCELSPINASHPVQALMESFTVLSGCASRGTTGLPREVHVLNLRSTDQGPGQRQREVTLHLNPIASVHTHHKPIVFLLNSPQPLVWHLKTERLAAGVPRLFLVSEGSVVQFPSGNFSLTAETEERNFPQENEHLLRWAQKEYGAVTSFTELKIARNIYIKVGEDQVFPPTCNIGKNFLSLNYLAEYLQPKAAEGCVLPSQPHEKEVHIIELITPSSNPYSAFQVDIIVDIRPAQEDPEVVKNLVLILKCKKSVNWVIKSFDVKGNLKVIAPNSIGFGKESERSMTMTKLVRDDIPSTQENLMKWALDNGYRPVTSYTMAPVANRFHLRLENNEEMRDEEVHTIPPELRILLDPDHPPALDNPLFPGEGSPNGGLPFPFPD

Kd: 0.5 nM
B2: betaglycan O-ZP (protein)
chain: GPEPSTRCELSPINASHPVQALMESFTVLSGCASRGTTGLPREVHVLNLRSTDQGPGQRQREVTLHLNPIASVHTHHKPIVFLLNSPQPLVWHLKTERLAAGVPRLFLVSEGSVVQFPSGNFSLTAETEERNFPQENEHLLRWAQKEYGAVTSFTELKIARNIYIKVGEDQVFPPTCNIGKNFLSLNYLAEYLQPKAAEGCVLPSQPHEKEVHIIELITPSSNPYSAFQVDIIVDIRPAQEDPEVVKNLVLILKCKKSVNWVIKSFDVKGNLKVIAPNSIGFGKESERSMTMTKLVRDDIPSTQENLMKWALDNGYRPVTSYTMAPVANRFHLRLENNEEMRDEEVHTIPPELRILLDPDHPPALDNPLFPGEGSPNGGLPFPFPDIPRRGWKEGEDRIPRPKQPIVPSVQLLPDHREPEEVQGGVDIALSVKCDHEKMVVAVDKDSFQTNGYSGMELTLLDPSCKAKMNGTHFVLESPLNGCGTRHRRSTPDGVVYYNSIVVQAPSPGDSSGWPDGYEDLESGDNGFPGDGDEGETAPLSRAGVVVFNCSLRQLRNPSGFQGQLDGNATFNMELYNTDLFLVPSPGVFSVAENEHVYVEVSVTKADQDLGFAIQTCFLSPYSNPDRMSDYTIIENICPKDDSVKFYSSKRVHFPIPHAEVDKKRFSFLFKSVFNTSLLFLHCELTLCSRKKGSLKLPRCVTPDDACTSLDATMIWTMMQNKKTFTKPLAVVLQVDYKENVPSTKDSSPIPPPPPQIFHGLDTL
